# Experimental data from the supplement of paper PMC7125110.
# ± gives the standard error. For some of these results: This sample holds only a part of the variants without activity.
# B1: glmS ribozyme (parent)
# chain: AUAAAAGCGCCAGAACUACAGAAAUGUAGUUGACGAGGAGGAGGUUUAUCGAAUUUUCGGCGGAUGCCUCCAAA
# Experiments:
# Details in all cases: with glucosamine-6-phosphate
# [1] = variants of: B1; assay: kcat; higher = faster cleavage; RNA array
# Method in brief: (§1)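 Barcoded glmS ribozyme variants on sequenced MiSeq chips were transcribed in situ by E. coli RNA polymerase and tracked through a hybridised Cy3 probe at 37 °C. Glucosamine-6-phosphate (40 μM to 10 mM) in HEPES/KCl/Mg(OAc)2 buffer was flowed in, and tiles were imaged over ~14 h. Signals were normalised to baseline and to non-cleaving reference variants; per-tile medians were fit to one- or two-exponential decays to give kobs. kcat and KM came from weighted Michaelis–Menten fits across concentrations.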
# [2] = variants of: B1; assay: KM; higher = weaker cofactor use; RNA array
# Method in brief: as §1
# [3] = variants of: B1; assay: self-cleavage kobs at 40 uM GlcN6P; higher = faster cleavage; RNA array
# Method in brief: as §1
# [4] = variants of: B1; assay: self-cleavage kobs at 160 uM GlcN6P; higher = faster cleavage; RNA array
# Method in brief: as §1
# [5] = variants of: B1; assay: self-cleavage kobs at 640 uM GlcN6P; higher = faster cleavage; RNA array
# Method in brief: as §1
# [6] = variants of: B1; assay: self-cleavage kobs at 2500 uM GlcN6P; higher = faster cleavage; RNA array
# Method in brief: as §1
# [7] = variants of: B1; assay: self-cleavage kobs at 10000 uM GlcN6P; higher = faster cleavage; RNA array
# Method in brief: as §1
Variant,kcat [1] [s⁻¹],KM [2] [µM],self-cleavage kobs at 40 uM GlcN6P [3] [s⁻¹],self-cleavage kobs at 160 uM GlcN6P [4] [s⁻¹],self-cleavage kobs at 640 uM GlcN6P [5] [s⁻¹],self-cleavage kobs at 2500 uM GlcN6P [6] [s⁻¹],self-cleavage kobs at 10000 uM GlcN6P [7] [s⁻¹]
A53C U54C,0.00131 ± 0.00043,1870 ± 890,2.24e-05 ± 9.7e-06,9.33e-05 ± 1.9e-05,0.000355 ± 6.3e-05,0.0011 ± 0.00018,0.000805 ± 0.00023
U55A G66A,0.0303 ± 0.014,–,0.000654 ± 7.1e-05,0.00137 ± 0.0003,0.00563 ± 0.00082,0.015 ± 0.0035,0.0286 ± 0.0061
U55C G59A,0.000118 ± 2.1e-05,4900 ± 1900,–,–,–,3.74e-05 ± 1.1e-05,7.97e-05 ± 1.4e-05
U54G G66U,0.00193 ± 0.00025,1570 ± 340,5.67e-05 ± 5.9e-06,0.000183 ± 2.7e-05,0.000509 ± 4.8e-05,0.000956 ± 0.00014,0.00181 ± 0.00013
A53U G60A,< 1e-05,–,< 1e-05,–,–,–,–
U54A U55A,0.044 ± 0.016,1290 ± 540,0.00147 ± 0.00017,0.00297 ± 0.001,–,–,0.0388 ± 0.0094
U54C G62C,< 1e-05,133 ± 48,< 1e-05,< 1e-05,< 1e-05,< 1e-05,–
